What was measured:
Assay in all cases: SPR
[1] = molecular target: D^d MHC class I monomer presenting […] (mouse | )
[2] = molecular target: T1, K^d MHC class I monomer presenting VYLKTNVFL (mouse | )
T1 chain 1: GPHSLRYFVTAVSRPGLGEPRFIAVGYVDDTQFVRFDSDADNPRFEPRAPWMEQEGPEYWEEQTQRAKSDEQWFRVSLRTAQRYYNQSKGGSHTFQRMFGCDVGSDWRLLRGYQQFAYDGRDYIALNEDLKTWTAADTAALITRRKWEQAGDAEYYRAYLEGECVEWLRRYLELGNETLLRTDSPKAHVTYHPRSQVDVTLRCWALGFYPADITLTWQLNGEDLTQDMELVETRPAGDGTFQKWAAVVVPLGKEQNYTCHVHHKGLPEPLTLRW
T1 chain 2: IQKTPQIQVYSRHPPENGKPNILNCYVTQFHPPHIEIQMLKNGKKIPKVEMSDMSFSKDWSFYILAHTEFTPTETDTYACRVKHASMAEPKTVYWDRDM
T1 chain 3: VYLKTNVFL

[3] = molecular target: T2, K^b MHC class I monomer presenting SIINFEKL (mouse | )
T2 chain 1: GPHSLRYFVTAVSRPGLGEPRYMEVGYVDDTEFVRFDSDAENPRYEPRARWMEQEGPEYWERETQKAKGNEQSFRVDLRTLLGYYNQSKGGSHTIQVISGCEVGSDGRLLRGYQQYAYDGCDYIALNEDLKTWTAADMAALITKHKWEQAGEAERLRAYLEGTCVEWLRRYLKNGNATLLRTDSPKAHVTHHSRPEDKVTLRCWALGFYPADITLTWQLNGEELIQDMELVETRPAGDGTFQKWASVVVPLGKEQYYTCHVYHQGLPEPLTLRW
T2 chain 2: T1 chain 2
T2 chain 3: SIINFEKL

B1: 34-1-2S antibody (antibody, V domains shown)
VH: EVQLQQSGAEFVRPGASVKLSCTASGFNLKDDYMFWVKQRPEQGLEWIGWIAPDNGDTEYASKFQGKATITADTSSNTAYVQLSSLTSEDTAVYYCTTWGYYSYVNYWGQGTTLTVSS
VL: DIQMTQSPSSLSASLGERVSLTCRASQDIGSNLNWLQQEPDGTIKRLIYATYSLDSGVPKRFSGSRSGSDYSLTISSLESEDFVDYYCLQYASSPYTFGGGTKLEIK
[1]
  Kd: 30 nM
[2]
  Kd: 9.1 nM
[3]
  Kd: 2490 nM

— paper doi:10.1101/2024.01.24.577129 (2024)
